1 molecule from patent US11161908 can be followed below.

The target of the experiment is human BAFF-R-GFP fusion protein expressed on the surface of mouse fibroblast (L) cells, clone D2C (human) (UniProt Q96RJ3). The experiment is described as follows: cell ELISA of hybridoma supernatant on (h)BAFF-R-expressing cells, anti-mouse IgG-HRP; same clone on parental L cell: 0.102.

B1: mouse monoclonal antibody from hybridoma Clone 55 (antibody, V domains shown)
VH: QVTLKESGPGILKPSQTLSLTCSFSGFSLSTSGMGVGWIRQPSGKGLEWLAHIWWDDDKYYNSSLKSHLTISKDTSRNQVFLKITSVDTADTATYYCARSFGYGLDYWGQGTTLTVSS
VL: DIQMTQTTSSLSASLGDRVTISCSASQDISNYLNWYQQKPDGTVKLLIYYTSSLHSGVPSRFSGSGSGTDYSLTISSLEPEDIATYYCHQFSELPWTFGGGTKLEIK
In the case of B1, the OD 450 nm amounted to 1.07 OD 450 nm.
